{"source": "paper doi:10.1101/2024.05.31.596772", "biological_target": "microtubules (pig (purified from porcine brain))", "assay": "co-sedimentation"}
{"substance": "CKK dimer (mRFP1-FKBP-CKK and mEGFP-FRB-CKK with rapamycin) (from UniProt Q80VC9 1112-1246; Q80VC9 1112-1246) (complex)", "values": [{"measurement": "Kd", "value": 147, "unit": "nM"}]}
